Reference: the supplement of paper PMC9112550, “Optimization of the antimicrobial peptide Bac7 by deep mutational scanning” (BMC Biology, 2022)

Tested on: Escherichia coli TOP10
Assay: shrunken log2 fold change of peptide-encoding DNA abundance (4.5 h post-induction vs induction); higher = less antimicrobial activity (less host growth inhibition)
Details: time post-induction: 4.5 h; library: site-saturation at positions 5, 18, 19, 20
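Note: peptides expressed intracellularly from a pBAD plasmid library in pooled LB shake-flask culture, induced with 0.3% L-arabinose, DNA abundance read by NGS, three biological replicates, DESeq2 with apeglm shrinkage.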

Sequence	shrunken log2 fold change
RRIRTRPPRLPRPRPRPIGVPRP	-0.0262
RRIRFRPPRLPRPRPRPWLFPRP	-0.0194
RRIRSRPPRLPRPRPRPTVVPRP	-0.112
RRIRGRPPRLPRPRPRPWNSPRP	-0.00154
RRIRVRPPRLPRPRPRPMSPPRP	0.0872
RRIRHRPPRLPRPRPRPHKVPRP	-0.299
RRIRKRPPRLPRPRPRPAWDPRP	0.497
RRIRVRPPRLPRPRPRPWMFPRP	-0.673
RRIRMRPPRLPRPRPRPQHPPRP	-0.0395
RRIRFRPPRLPRPRPRPVMSPRP	-0.153
RRIRCRPPRLPRPRPRPMQRPRP	0.0282
RRIRNRPPRLPRPRPRPANMPRP	-0.205
RRIRFRPPRLPRPRPRPWDSPRP	-0.21
RRIRARPPRLPRPRPRPWKHPRP	-0.0402
RRIRPRPPRLPRPRPRPMFEPRP	0.0626
RRIRNRPPRLPRPRPRPHPDPRP	-0.15
RRIRTRPPRLPRPRPRPQTPPRP	0.25
RRIRPRPPRLPRPRPRPQLKPRP	0.202
RRIRCRPPRLPRPRPRPEPHPRP	0.489
RRIRHRPPRLPRPRPRPGHSPRP	-0.27
RRIRERPPRLPRPRPRPDDAPRP	-0.179
RRIRYRPPRLPRPRPRPYNCPRP	-0.0167
RRIRNRPPRLPRPRPRPAMGPRP	0.288
RRIRDRPPRLPRPRPRPHTVPRP	-0.0379
RRIRYRPPRLPRPRPRPAMCPRP	0.00292

Sequence	shrunken log2 fold change
RRIRVRPPRLPRPRPRPLFKPRP	-0.262
RRIRFRPPRLPRPRPRPHDHPRP	-0.508
RRIRGRPPRLPRPRPRPCFKPRP	0.00363
RRIRWRPPRLPRPRPRPWIWPRP	0.0705
RRIRTRPPRLPRPRPRPECYPRP	-0.0535
RRIRKRPPRLPRPRPRPCNMPRP	-0.0983
RRIRRRPPRLPRPRPRPTGTPRP	1.07
RRIRVRPPRLPRPRPRPCPRPRP	0.368
RRIRWRPPRLPRPRPRPYCGPRP	-0.187
RRIRCRPPRLPRPRPRPPYEPRP	-0.306
RRIRVRPPRLPRPRPRPGFFPRP	0.0758
RRIRMRPPRLPRPRPRPKNGPRP	0.0732
RRIRTRPPRLPRPRPRPAICPRP	-0.552
RRIRDRPPRLPRPRPRPHYYPRP	-0.236
RRIRCRPPRLPRPRPRPQYIPRP	-0.738
RRIRYRPPRLPRPRPRPICRPRP	-0.226
RRIRSRPPRLPRPRPRPRKSPRP	0.139
RRIRMRPPRLPRPRPRPVVMPRP	-0.0363
RRIRHRPPRLPRPRPRPCMTPRP	0.0183
RRIRWRPPRLPRPRPRPCDLPRP	-0.286
RRIRTRPPRLPRPRPRPMGLPRP	0.12
RRIRRRPPRLPRPRPRPLFQPRP	0.246
RRIRFRPPRLPRPRPRPITWPRP	-0.972
RRIRNRPPRLPRPRPRPEFPPRP	0.0125
RRIRGRPPRLPRPRPRPWHMPRP	-0.345

Sequence	shrunken log2 fold change
RRIRKRPPRLPRPRPRPSDRPRP	0.0691
RRIRFRPPRLPRPRPRPFTLPRP	0.0331
RRIRCRPPRLPRPRPRPAWAPRP	0.108
RRIRKRPPRLPRPRPRPTICPRP	-0.0104
RRIRQRPPRLPRPRPRPWGPPRP	0.0893
RRIRDRPPRLPRPRPRPSYNPRP	-0.285
RRIRKRPPRLPRPRPRPWHHPRP	-0.197
RRIRTRPPRLPRPRPRPTYHPRP	-0.291
RRIRPRPPRLPRPRPRPVFSPRP	-0.00413
RRIRDRPPRLPRPRPRPYDDPRP	-0.00157
RRIRLRPPRLPRPRPRPVELPRP	0.0718
RRIRQRPPRLPRPRPRPKQMPRP	0.114
RRIRYRPPRLPRPRPRPFHVPRP	-0.184
RRIRLRPPRLPRPRPRPSFSPRP	-0.365
RRIRCRPPRLPRPRPRPHREPRP	-0.0514
RRIRSRPPRLPRPRPRPSYWPRP	2.29
RRIRVRPPRLPRPRPRPQACPRP	1.56
RRIRVRPPRLPRPRPRPNCLPRP	-0.105
RRIRNRPPRLPRPRPRPHAAPRP	0.545
RRIRPRPPRLPRPRPRPGETPRP	0.117
RRIRDRPPRLPRPRPRPTQQPRP	0.248
RRIRGRPPRLPRPRPRPALFPRP	1.23
RRIRVRPPRLPRPRPRPLYCPRP	-0.596
RRIRFRPPRLPRPRPRPSECPRP	-0.472
RRIRQRPPRLPRPRPRPYGQPRP	-0.239

Sequence	shrunken log2 fold change
RRIRWRPPRLPRPRPRPDMMPRP	-0.0236
RRIRGRPPRLPRPRPRPYMPPRP	-0.191
RRIRLRPPRLPRPRPRPFRYPRP	-0.021
RRIRNRPPRLPRPRPRPHLEPRP	0.0549
RRIRDRPPRLPRPRPRPGRAPRP	0.478
RRIRERPPRLPRPRPRPTMPPRP	-0.124
RRIRNRPPRLPRPRPRPDCSPRP	-0.224
RRIRIRPPRLPRPRPRPHNFPRP	-0.0684
RRIRTRPPRLPRPRPRPCPGPRP	-0.232
RRIRYRPPRLPRPRPRPPDYPRP	-2.1
RRIRSRPPRLPRPRPRPRLEPRP	0.596
RRIRRRPPRLPRPRPRPTWTPRP	0.464
RRIRSRPPRLPRPRPRPSTQPRP	2.48
RRIRYRPPRLPRPRPRPTFFPRP	-0.0709
RRIRHRPPRLPRPRPRPRWKPRP	0.00489
RRIRSRPPRLPRPRPRPKANPRP	0.126
RRIRHRPPRLPRPRPRPVVVPRP	-0.149
RRIRQRPPRLPRPRPRPTTQPRP	0.0143
RRIRYRPPRLPRPRPRPDPAPRP	-0.164
RRIRVRPPRLPRPRPRPGIDPRP	-0.143
RRIRLRPPRLPRPRPRPAMDPRP	0.113
RRIRERPPRLPRPRPRPVYFPRP	-0.207
RRIRMRPPRLPRPRPRPQVNPRP	0.166
RRIRDRPPRLPRPRPRPAEDPRP	-0.017
RRIRQRPPRLPRPRPRPPKKPRP	-0.0474

Sequence	shrunken log2 fold change
RRIRPRPPRLPRPRPRPSMFPRP	-0.437
RRIRPRPPRLPRPRPRPKRTPRP	0.0584
RRIRRRPPRLPRPRPRPWCWPRP	0.123
RRIRKRPPRLPRPRPRPFMVPRP	-0.145
RRIRRRPPRLPRPRPRPIHKPRP	0.27
RRIRLRPPRLPRPRPRPDQCPRP	-0.0609
RRIRLRPPRLPRPRPRPGPNPRP	0.0611
RRIRNRPPRLPRPRPRPPWRPRP	0.437
RRIRERPPRLPRPRPRPEMMPRP	-0.269
RRIRPRPPRLPRPRPRPDCNPRP	-0.319
RRIRMRPPRLPRPRPRPPYWPRP	0.37
RRIRRRPPRLPRPRPRPGSWPRP	0.189
RRIRFRPPRLPRPRPRPGGQPRP	0.0786
RRIRARPPRLPRPRPRPSIDPRP	-0.0466
RRIRWRPPRLPRPRPRPTPWPRP	0.48
RRIRERPPRLPRPRPRPSDLPRP	-0.151
RRIRQRPPRLPRPRPRPFRFPRP	0.0421
RRIRRRPPRLPRPRPRPVAPPRP	0.436
RRIRWRPPRLPRPRPRPTPTPRP	0.22
RRIRIRPPRLPRPRPRPQKSPRP	-0.403
RRIRVRPPRLPRPRPRPINKPRP	-0.613
RRIRDRPPRLPRPRPRPRLFPRP	0.653
RRIRFRPPRLPRPRPRPLSVPRP	-0.271
RRIRRRPPRLPRPRPRPCNMPRP	-0.152
RRIRTRPPRLPRPRPRPWSAPRP	-0.152

Sequence	shrunken log2 fold change
RRIRCRPPRLPRPRPRPANFPRP	-0.0131
RRIRVRPPRLPRPRPRPWYMPRP	-0.132
RRIRYRPPRLPRPRPRPKQLPRP	0.0588
RRIRRRPPRLPRPRPRPNMFPRP	-0.047
RRIRSRPPRLPRPRPRPDMWPRP	-0.409
RRIRARPPRLPRPRPRPGPQPRP	0.367
RRIRCRPPRLPRPRPRPSLHPRP	-0.289
RRIRPRPPRLPRPRPRPVEAPRP	0.481
RRIRPRPPRLPRPRPRPFKIPRP	0.0869
RRIRVRPPRLPRPRPRPKRLPRP	0.132
RRIRMRPPRLPRPRPRPEGVPRP	3.21
RRIRTRPPRLPRPRPRPSLDPRP	-0.286
RRIRNRPPRLPRPRPRPYHKPRP	-2.76
RRIRKRPPRLPRPRPRPCLHPRP	-0.0515
RRIRNRPPRLPRPRPRPHAIPRP	-0.673
RRIRRRPPRLPRPRPRPNPVPRP	0.123
RRIRFRPPRLPRPRPRPKSGPRP	0.0565
RRIRWRPPRLPRPRPRPKEPPRP	0.117
RRIRERPPRLPRPRPRPFGGPRP	-0.0945
RRIRSRPPRLPRPRPRPTWCPRP	0.18
RRIRSRPPRLPRPRPRPCNTPRP	-0.324
RRIRVRPPRLPRPRPRPTIVPRP	-0.497
RRIRVRPPRLPRPRPRPWEKPRP	0.0403
RRIRYRPPRLPRPRPRPLNKPRP	-0.449
RRIRHRPPRLPRPRPRPELHPRP	0.00184
